Measured values reported in the supplement of paper PMC10567573.

B1: KRT18 (parent)
chain: KSQDLAKIMADIRAQYDELARKNR

Variants of: B1
Assay: protein stability index of a GFP-peptide fusion (GPS, HEK-293T) (PSI 1-6); higher = more stable
Conditions: c terminus: a fixed tail appended
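Further: lentivirally expressed fusions sorted by FACS into six bins by GFP to DsRed ratio, PSI derived from sequencing read proportions per bin multiplied by bin number.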

Variant	protein stability index
KSQDLAKIMADIRAQYDGLARKNR [E18G]	2.66
KSQDLAKIMADIRAQYDHLARKNR [E18H]	2.76
KSQDLAKIMADIRAQYDILARKNR [E18I]	2.23
KSQDLAKIMADIRAQYDKLARKNR [E18K]	1.99
KSQDLAKIMADIRAQYDLLARKNR [E18L]	2.38
KSQDLAKIMADIRAQYDMLARKNR [E18M]	2.54
KSQDLAKIMADIRAQYDNLARKNR [E18N]	2.62
KSQDLAKIMADIRAQYDPLARKNR [E18P]	2.8
KSQDLAKIMADIRAQYDQLARKNR [E18Q]	2.68
KSQDLAKIMADIRAQYDRLARKNR [E18R]	2.39
KSQDLAKIMADIRAQYDSLARKNR [E18S]	2.72
KSQDLAKIMADIRAQYDTLARKNR [E18T]	2.35
KSQDLAKIMADIRAQYDVLARKNR [E18V]	2.31
KSQDLAKIMADIRAQYDWLARKNR [E18W]	1.96
KSQDLAKIMADIRAQYDYLARKNR [E18Y]	3.24
KSQDLAKIMADIRAQYDEAARKNR [L19A]	3.52
KSQDLAKIMADIRAQYDECARKNR [L19C]	3.08
KSQDLAKIMADIRAQYDEDARKNR [L19D]	3.75
KSQDLAKIMADIRAQYDEEARKNR [L19E]	4.01
KSQDLAKIMADIRAQYDEFARKNR [L19F]	2.46
KSQDLAKIMADIRAQYDEGARKNR [L19G]	3.44
KSQDLAKIMADIRAQYDEHARKNR [L19H]	3.39
KSQDLAKIMADIRAQYDEIARKNR [L19I]	3.12
KSQDLAKIMADIRAQYDEKARKNR [L19K]	3.74

Variant	protein stability index
KSQDLAKIMADIRAQYDEMARKNR [L19M]	3.2
KSQDLAKIMADIRAQYDENARKNR [L19N]	3.63
KSQDLAKIMADIRAQYDEPARKNR [L19P]	2.98
KSQDLAKIMADIRAQYDEQARKNR [L19Q]	3.59
KSQDLAKIMADIRAQYDERARKNR [L19R]	3.63
KSQDLAKIMADIRAQYDESARKNR [L19S]	3.71
KSQDLAKIMADIRAQYDETARKNR [L19T]	3.58
KSQDLAKIMADIRAQYDEVARKNR [L19V]	3.27
KSQDLAKIMADIRAQYDEWARKNR [L19W]	2.38
KSQDLAKIMADIRAQYDEYARKNR [L19Y]	2.73
KSQDLAKIMADIRAQYDELCRKNR [A20C]	2.38
KSQDLAKIMADIRAQYDELDRKNR [A20D]	3.42
KSQDLAKIMADIRAQYDELERKNR [A20E]	4.03
KSQDLAKIMADIRAQYDELFRKNR [A20F]	2.69
KSQDLAKIMADIRAQYDELGRKNR [A20G]	3.19
KSQDLAKIMADIRAQYDELHRKNR [A20H]	3.12
KSQDLAKIMADIRAQYDELIRKNR [A20I]	2.47
KSQDLAKIMADIRAQYDELKRKNR [A20K]	3.19
KSQDLAKIMADIRAQYDELLRKNR [A20L]	2.03
KSQDLAKIMADIRAQYDELMRKNR [A20M]	2.51
KSQDLAKIMADIRAQYDELNRKNR [A20N]	2.93
KSQDLAKIMADIRAQYDELPRKNR [A20P]	2.98
KSQDLAKIMADIRAQYDELQRKNR [A20Q]	2.94
KSQDLAKIMADIRAQYDELRRKNR [A20R]	3.09

Variant	protein stability index
KSQDLAKIMADIRAQYDELSRKNR [A20S]	2.87
KSQDLAKIMADIRAQYDELTRKNR [A20T]	2.52
KSQDLAKIMADIRAQYDELVRKNR [A20V]	2.85
KSQDLAKIMADIRAQYDELWRKNR [A20W]	1.67
KSQDLAKIMADIRAQYDELYRKNR [A20Y]	1.71
KSQDLAKIMADIRAQYDELAAKNR [R21A]	3.1
KSQDLAKIMADIRAQYDELACKNR [R21C]	2.68
KSQDLAKIMADIRAQYDELADKNR [R21D]	2.36
KSQDLAKIMADIRAQYDELAEKNR [R21E]	2.14
KSQDLAKIMADIRAQYDELAFKNR [R21F]	2.39
KSQDLAKIMADIRAQYDELAGKNR [R21G]	3.2
KSQDLAKIMADIRAQYDELAHKNR [R21H]	3.26
KSQDLAKIMADIRAQYDELAIKNR [R21I]	3.24
KSQDLAKIMADIRAQYDELAKKNR [R21K]	2.9
KSQDLAKIMADIRAQYDELALKNR [R21L]	2.5
KSQDLAKIMADIRAQYDELAMKNR [R21M]	2.83
KSQDLAKIMADIRAQYDELANKNR [R21N]	2.96
KSQDLAKIMADIRAQYDELAPKNR [R21P]	3.55
KSQDLAKIMADIRAQYDELAQKNR [R21Q]	2.59
KSQDLAKIMADIRAQYDELASKNR [R21S]	2.95
KSQDLAKIMADIRAQYDELATKNR [R21T]	2.83
KSQDLAKIMADIRAQYDELAVKNR [R21V]	1.91
KSQDLAKIMADIRAQYDELAWKNR [R21W]	2.47
KSQDLAKIMADIRAQYDELAYKNR [R21Y]	2.65

Variant	protein stability index
KSQDLAKIMADIRAQYDELARANR [K22A]	2.67
KSQDLAKIMADIRAQYDELARCNR [K22C]	2.32
KSQDLAKIMADIRAQYDELARDNR [K22D]	3.35
KSQDLAKIMADIRAQYDELARENR [K22E]	3.04
KSQDLAKIMADIRAQYDELARFNR [K22F]	2.43
KSQDLAKIMADIRAQYDELARGNR [K22G]	3.04
KSQDLAKIMADIRAQYDELARHNR [K22H]	3.1
KSQDLAKIMADIRAQYDELARINR [K22I]	1.89
KSQDLAKIMADIRAQYDELARLNR [K22L]	2.43
KSQDLAKIMADIRAQYDELARMNR [K22M]	2.44
KSQDLAKIMADIRAQYDELARNNR [K22N]	2.7
KSQDLAKIMADIRAQYDELARPNR [K22P]	2.85
KSQDLAKIMADIRAQYDELARQNR [K22Q]	2.92
KSQDLAKIMADIRAQYDELARRNR [K22R]	2.79
KSQDLAKIMADIRAQYDELARSNR [K22S]	2.88
KSQDLAKIMADIRAQYDELARTNR [K22T]	2.45
KSQDLAKIMADIRAQYDELARVNR [K22V]	2.23
KSQDLAKIMADIRAQYDELARWNR [K22W]	1.88
KSQDLAKIMADIRAQYDELARYNR [K22Y]	2.29
KSQDLAKIMADIRAQYDELARKAR [N23A]	2.9
KSQDLAKIMADIRAQYDELARKCR [N23C]	3.06
KSQDLAKIMADIRAQYDELARKDR [N23D]	3.86
